Measured values as given in paper PMC4564947 (Nature structural & molecular biology, 2015).
Where “and” joins values, the source holds several entries; their conditions need not be identical. Equal entries are not always repeated.

Legend:
[1] = molecular target: the molecule itself; assay: SEC
[2] = molecular target: the molecule itself; assay: SEC-MALS

Protein	binding result [1]	stoichiometry N [2]
FLAG-tagged full-length wild-type CtIP purified from HEK-293T cells (natural protein) MNISGSSCGSPNSADTSSDFKDLWTKLKECHDREVQGLQVKVTKLKQERILDAQRLEEFFTKNQQLREQQKVLHETIKVLEDRLRAGLCDRCAVTEEHMRKKQQEFENIRQQNLKLITELMNERNTLQEENKKLSEQLQQKIENDQQHQAAELECEEDVIPDSPITAFSFSGVNRLRRKENPHVRYIEQTHTKLEHSVCANEMRKVSKSSTHPQHNPNENEILVADTYDQSQSPMAKAHGTSSYTPDKSSFNLATVVAETLGLGVQEESETQGPMSPLGDELYHCLEGNHKKQPFEESTRNTEDSLRFSDSTSKTPPQEELPTRVSSPVFGATSSIKSGLDLNTSLSPSLLQPGKKKHLKTLPFSNTCISRLEKTRSKSEDSALFTHHSLGSEVNKIIIQSSNKQILINKNISESLGEQNRTEYGKDSNTDKHLEPLKSLGGRTSKRKKTEEESEHEVSCPQASFDKENAFPFPMDNQFSMNGDCVMDKPLDLSDRFSAIQRQEKSQGSETSKNKFRQVTLYEALKTIPKGFSSSRKASDGNCTLPKDSPGEPCSQECIILQPLNKCSPDNKPSLQIKEENAVFKIPLRPRESLETENVLDDIKSAGSHEPIKIQTRSDHGGCELASVLQLNPCRTGKIKSLQNNQDVSFENIQWSIDPGADLSQYKMDVTVIDTKDGSQSKLGGETVDMDCTLVSETVLLKMKKQEQKGEKSSNEERKMNDSLEDMFDRTTHEEYESCLADSFSQAADEEEELSTATKKLHTHGDKQDKVKQKAFVEPYFKGDERETSLQNFPHIEVVRKKEERRKLLGHTCKECEIYYADMPAEEREKKLASCSRHRFRYIPPNTPENFWEVGFPSTQTCMERGYIKEDLDPCPRPKRRQPYNAIFSPKGKEQKT	binds	
Δ20-27 CtIP-NTD, human CtIP residues 18-145 with residues 20-27 deleted (domain or fragment) SDKECHDREVQGLQVKVTKLKQERILDAQRLEEFFTKNQQLREQQKVLHETIKVLEDRLRAGLCDRCAVTEEHMRKKQQEFENIRQQNLKLITELMNERNTLQEENKKLSEQLQQKIEND		2
CtIP N-terminal domain (CtIP-NTD), human CtIP residues 18-145 (domain or fragment) SDFKDLWTKLKECHDREVQGLQVKVTKLKQERILDAQRLEEFFTKNQQLREQQKVLHETIKVLEDRLRAGLCDRCAVTEEHMRKKQQEFENIRQQNLKLITELMNERNTLQEENKKLSEQLQQKIEND		4
F20E CtIP-NTD, human CtIP residues 18-145 with F20E (domain or fragment) SDEKDLWTKLKECHDREVQGLQVKVTKLKQERILDAQRLEEFFTKNQQLREQQKVLHETIKVLEDRLRAGLCDRCAVTEEHMRKKQQEFENIRQQNLKLITELMNERNTLQEENKKLSEQLQQKIEND		2 and 4
CtIP-NTD-DM, C89A C92A double mutant of CtIP residues 18-145 (domain or fragment) SDFKDLWTKLKECHDREVQGLQVKVTKLKQERILDAQRLEEFFTKNQQLREQQKVLHETIKVLEDRLRAGLADRAAVTEEHMRKKQQEFENIRQQNLKLITELMNERNTLQEENKKLSEQLQQKIEND		4
L27E CtIP-NTD, human CtIP residues 18-145 with L27E (domain or fragment) SDFKDLWTKEKECHDREVQGLQVKVTKLKQERILDAQRLEEFFTKNQQLREQQKVLHETIKVLEDRLRAGLCDRCAVTEEHMRKKQQEFENIRQQNLKLITELMNERNTLQEENKKLSEQLQQKIEND		2
CtIP-cNTD, human CtIP residues 52-145 (domain or fragment) DAQRLEEFFTKNQQLREQQKVLHETIKVLEDRLRAGLCDRCAVTEEHMRKKQQEFENIRQQNLKLITELMNERNTLQEENKKLSEQLQQKIEND		2
CtIP-cNTD-DM, C89A C92A double mutant of CtIP residues 52-145 (domain or fragment) DAQRLEEFFTKNQQLREQQKVLHETIKVLEDRLRAGLADRAAVTEEHMRKKQQEFENIRQQNLKLITELMNERNTLQEENKKLSEQLQQKIEND		2
SDFKDLWTKLKECHDREVQGLQVKVTKLKQERILD (domain or fragment) [CtIP-nNTD, tetramerization domain of human CtIP, residues 18-52]		4
SDFKDLWTKLKECHDREVQGLQVKVTKLKQERILD (domain or fragment) [CtIP-nNTD (residues 18-52) fused to a maltose-binding protein (MBP) tag]		4
